Measurements published in the supplement of paper PMC12042874.
± gives the uncertainty stated by the source.

Test: amyloid nucleation score (Sup35N fusion, yeast selection) (log enrichment); library NNK1; higher = more nucleation; inactive = no reads after selection
Procedure, shortened: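 Nucleation score: DiMSum log enrichment of output over input reads, centred on the mode score of non-aggregating sequences. Only sequences with at least 100 input reads were kept. Reads came from Illumina sequencing of plasmid inserts before and after 7 days of growth at 30°C without adenine and uracil, in psi-negative yeast expressing Sup35N fused to peptides of 20 random codons after 24 hours of induction with 100 μM copper sulfate.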

| Substance | amyloid nucleation score |
| --- | --- |
| ARRGVVNPYLSVEFFFRRGL | 0.493 ± 0.68 |
| CYMKNKLSFIM | inactive |
| YNGVCSNW | 0.13 ± 0.48 |
| RIGVLNCWEVWADVTQREHL | -0.769 ± 1.1 |
| PMPSLECNGVHFIKGIRLTL | 0.754 ± 0.99 |
| PSGVCSIVVFKCLRRVMSSL | 0.353 ± 0.35 |
| LCIMF | -0.446 ± 0.69 |
| GFKGILTYGRGVLVHFYRPQ | 0.09 ± 0.35 |
| RHGVRYSKLELINTREFYNE | -0.246 ± 0.9 |
| PCFRTYDCAISNLAVASRCR | 1.03 ± 0.37 |
| FDECGAGLLPTG | -0.198 ± 0.41 |
| LLVVSYFITSLSTCMFGYWK | -0.411 ± 0.63 |
| KVIRAGHDVVPRTYRRRSRR | 1.29 ± 0.58 |
| TSNLHTHGSVFDFWG | 0.732 ± 0.55 |
| SVCPKINLLNFVWNYYAPTA | 6.869 ± 0.064 |
| FGLVAGRR | -0.188 ± 1.2 |
| YELTRIR | 2.38 ± 0.17 |
| NGKDFWMSGRYAYVSMHFDR | 1.13 ± 0.31 |
| SGWSYRRAGRHWMAMMGNKF | -0.04 ± 0.34 |
| QIYVIICLMFSDIGMHIAYV | inactive |
| NHMFPMVVTYLWSCFIIGSV | 2.42 ± 0.37 |
| GEVSRWRMCGLSLMEGRGLQ | 0.733 ± 0.44 |
| GIYTFFVGTKFC | 0.65 ± 0.5 |
| TTIQGRPVNVAAFRTTLLTR | -1.11 ± 2.7 |
| WSRMGLAILRFFKYLS | 0.093 ± 0.36 |

| Substance | amyloid nucleation score |
| --- | --- |
| VTDCKLMCTVRPVSGSKTPV | 0.139 ± 0.34 |
| WLHIPYS | 0.547 ± 0.61 |
| CYLKGYA | 0.853 ± 0.52 |
| FVGGVSSERYLFGWLS | -1.51 ± 1 |
| SWRHMFYGVILGWHICSSGS | 0.925 ± 0.28 |
| CSRANRKGECG | -0.62 ± 1.3 |
| IVLMLCV | -0.097 ± 0.36 |
| TSFCGLVAPQLCKFSMRSLE | -0.504 ± 0.47 |
| FNIAALSEYCGPLKSNAHW | -0.27 ± 0.64 |
| YTAACTRSNCYMCPVSAVGW | 0.214 ± 0.86 |
| QRVIAGPPNRAGKAYQALSR | 0.107 ± 0.53 |
| YWRVVGITIWVVQDLIFGEG | -0.783 ± 1 |
| YDQGVPTDVLILIAIEHQLS | 5.53 ± 0.077 |
| LAIDNDSWFVETNYNFKFDV | -0.438 ± 0.57 |
| RVDTL | 0.694 ± 1.1 |
| VMPRTES | 0.408 ± 0.9 |
| PVCGFRRWKCLPN | 0.318 ± 0.66 |
| GLCMEYTVWWVWSWITLRVD | -0.294 ± 0.26 |
| KAKTFI | 0.268 ± 1.2 |
| LNDRYYVIM | 0.233 ± 0.93 |
| FNLATIPISQFITPNSPLLR | -0.091 ± 1.1 |
| YKCVYFGMETAVGNTAQERP | 0.861 ± 0.77 |
| IESWCLMSVNSDGARWSSRF | -0.872 ± 0.83 |
| ELSNRVRTEFVCIRTLVEDN | inactive |
| APMNVLEVTFSYSADLTVVV | 0.167 ± 0.79 |

| Substance | amyloid nucleation score |
| --- | --- |
| FHHTKSGS | 1.67 ± 0.57 |
| RPTYMCSGTGDFLHFVFR | 4.64 ± 0.053 |
| SRDEFCG | -0.326 ± 0.47 |
| ISQKNDAMNYYIGMSQM | 1.52 ± 0.34 |
| DTLIAWTGLVMFTSVERGCS | -0.299 ± 0.37 |
| MVYLGECCITFYSFNSYRVM | 4.55 ± 0.053 |
| VVLCSVLTFDPSAEHLCTLV | 6.44 ± 0.066 |
| YVCGGWCVRVVRQVGYVNL | 0.421 ± 0.55 |
| MMSFVEKPQGESSSNEWGVN | -0.777 ± 2.4 |
| GSCVCECGWIFTARGVRVFK | -0.346 ± 0.42 |
| VYASSCMLGTWLSDSTSGCS | 0.371 ± 0.69 |
| VVWILMSAQNRMAPRFDVLT | 1.06 ± 0.51 |
| IKPANYA | -0.679 ± 0.53 |
| SIIFGVKTFSVFSKIYGLCW | 3.3 ± 0.067 |
| LIVLWNCSADPDGFMWCSKC | inactive |
| TCIVSWWYSQDGSWEMCLQR | inactive |
| GDYYACGPTCGSRAAFPGVG | -0.383 ± 0.59 |
| PINGEGSVSTLNDMVLSRSI | 1.26 ± 0.81 |
| LYYCSFRYMIKTRNLNVTFL | 6.4 ± 0.084 |
| RIRLVCHCPFSYRLAVPLSE | 3.99 ± 0.1 |
| HEGPCKRNCTGVLLRSARRH | -0.049 ± 0.26 |
| LCKRNVKCQFL | 0.192 ± 0.59 |
| WSKCNVRMCWH | -0.122 ± 0.64 |
| AGFLS | -0.388 ± 0.62 |
| VVELASLEGGHELTNWVNLV | 0.231 ± 0.59 |

| Substance | amyloid nucleation score |
| --- | --- |
| TIINLGILLYYVGFFSIDPG | 5.866 ± 0.052 |
| DLSRDAIRSKSEGAVR | -1.24 ± 1.7 |
| AQARWCWRLH | 0.963 ± 0.69 |
| WCVLTSMEAYWFGLSRN | 0.869 ± 0.54 |
| VKGVD | 1.19 ± 0.64 |
| MSSVLFYYGFNTFEYSDMYM | -0.15 ± 0.33 |
| YMNIVDVLAWGDRWVLLVWK | 0.425 ± 0.48 |
| ILMMPLIESCMEVLGHPS | 0.873 ± 0.51 |
| KVPKRKITNFRGMSGFSRYR | 0.985 ± 0.98 |
| LYHRSSLGMVSVVGDSMSDT | 0.596 ± 1.2 |
| DRFNCKCFVLSKVLCWYGVG | 0.851 ± 0.79 |
| SSGQLSNKYC | 0.786 ± 0.46 |
| AGNCRDW | -0.857 ± 0.66 |
| TVMANKY | -0.16 ± 0.32 |
| TGSTR | 0.391 ± 0.22 |
| PILKQNHWRDFGNCLAKRRE | -0.281 ± 0.82 |
| NLQVKFVVYIMPLQKD | 0.747 ± 0.44 |
| ISCSVKILRCLTCMLFSSVV | -0.8 ± 1.3 |
| DETQKPRVLCMLLLSKSTEN | 0.558 ± 0.34 |
| VYPWPVERSNFPTSALSYTK | -0.843 ± 0.6 |
| FCYIDMEFSFCLLSAEFISV | 0.03 ± 0.53 |
| QMLIAGGAKTGTPLFPGASS | 0.358 ± 0.5 |
| WAILLSWGYKGSRAWWFFSI | -0.721 ± 0.49 |
| WSLPAVRRCHNELEYCNTRR | 0.107 ± 0.34 |
| GFDFMWGGGFRNSRNRFQLS | 0.428 ± 0.6 |

| Substance | amyloid nucleation score |
| --- | --- |
| FLFLPVSVSYYEDDSGHVLC | inactive |
| SATTIFFRYSKIREFRLVFG | inactive |
| NELMSYVWQDKPRKYRYLF | 1.2 ± 0.13 |
| YIHDQIIALFKQDLFSGSLH | 0.961 ± 0.69 |
| FLPMSLGWVHKQLIFSPRWY | 1 ± 0.66 |
| ECRVCL | -0.807 ± 2.4 |
| THTRCLLVW | 0.216 ± 0.46 |
| SSCLEGCKSEACGWSNDGPG | -0.048 ± 0.76 |
| QGIAACSAGSLDYVYGRWKG | 3.91 ± 0.09 |
| MVCLVVSFGQCASTVFLFHL | 1.83 ± 0.49 |
| TCKTCLR | 0.858 ± 1.1 |
| HNFLLYVSSYSFFHRLFMLH | 0.149 ± 0.46 |
| YIMFDVLLTDKRPSSSVCSC | 3.41 ± 0.069 |
| TKGYLWPRKQTAFVWIAMCG | -0.187 ± 0.27 |
| AAMYSLICNPI | 0.518 ± 0.3 |
| LVASSFDYMMLSSVGRGYGL | -0.245 ± 0.3 |
| RELLGGVRNRLVYR | -0.192 ± 0.23 |
| GSTTSLRFTVLQTFLFSCNN | -0.663 ± 0.8 |
| QRFHFLNRL | -0.411 ± 1.1 |
| SSSIVLCAVRCSRPSWFGML | 1.45 ± 0.32 |
| NKTMGMKSYFLGNIFYMYGW | 5.215 ± 0.046 |
| WSCCAEERVTWGPAEMLLWG | -1.05 ± 2.7 |
| SCDMYQYEIV | inactive |
| IKALMIC | inactive |
| NLTANVLKVMSRHCNGFWIF | 0.29 ± 0.46 |

| Substance | amyloid nucleation score |
| --- | --- |
| SVWVENLEFIWRYLPSSVYP | 0.076 ± 0.3 |
| PWTSHVNFRSSGYLSNCLNF | -0.145 ± 0.64 |
| PVMFVDSMSVWVLLVCYRR | 0.19 ± 0.74 |
| FDGKLW | -0.53 ± 0.61 |
| IPDVEGQGG | 0.469 ± 0.72 |
| FKKNKQSSVKFGSNKSLQIG | 0.027 ± 0.51 |
| YRVYRRLSV | 0.526 ± 0.45 |
| ILFFRRCISVGLL | 3.33 ± 0.12 |
| IMLLLREKLASIRMMQECQL | inactive |
| LPWLPLKSRYALTAKFTCEP | 0.261 ± 1.2 |
| YMGHDC | 0.011 ± 0.21 |
| RFHCYWTPRTLSMASSTPWM | 0.47 ± 0.45 |
| WHRDVGFTLISVTPFCMMGG | 1.54 ± 0.33 |
| AGGLLYMLTHLNDVHSVKRY | 1.12 ± 0.93 |
| DYNIVYYNLYNTYINNYQSF | 7.72 ± 0.048 |
| HSQLLGMPFTSSVDS | 0.635 ± 0.97 |
| YLWLYVLSRTWVFNKHPSPI | -0.543 ± 0.41 |
| NRSRWPIHGFLIANKSPLQF | 0.486 ± 0.38 |
| MLRAGY | -0.292 ± 0.63 |
| VMVQANYMSSSSRSAYLSNM | inactive |
| ASYTIND | -0.57 ± 1.1 |
| AGPDSSGAGGGSARFLFPEL | 0.184 ± 1.2 |
| RVDTLYKVHLSKIRPSGGST | -0.096 ± 0.75 |
| EKQCVVDFL | -1.26 ± 1.7 |
| NYLGLLSEAVSRGVQLGDAT | inactive |

| Substance | amyloid nucleation score |
| --- | --- |
| HLRIGLNDVSLIISLTDKRT | -1.07 ± 0.47 |
| ESHRRR | 0.569 ± 0.62 |
| LCGSGGLMCRQGHYAEMGGC | -0.287 ± 1.1 |
| EEQVDLIWLMYGAYHVCVMW | 0.416 ± 0.43 |
| NDNSVTILVCARVSTNGIFD | 3.38 ± 0.11 |
| NCIGMFAIDLTKDQFRGDFR | 2.73 ± 0.31 |
| QMDVRDFYSRVSGGGGYQMH | -0.074 ± 0.61 |
| STVNGICSRKLAIRELFSNH | -0.063 ± 0.26 |
| LKAELSNLKAHVLW | 0.777 ± 0.54 |
| TYSWEDCTYGITPSGTYRSN | 1.33 ± 0.38 |
| SDRKEA | -0.444 ± 0.69 |
| PLTNRNIKIHYDLLSDDKMV | 0.602 ± 0.26 |
| PIIVDRCCFDYIRRVNVLYN | 0.677 ± 0.48 |
| DLILPRRLSYGYLPVLEGPS | -0.222 ± 0.76 |
| ILGFSRWNLNCISSRGRKIR | -0.297 ± 0.39 |
| ERVGAGVGSNERRD | 0.646 ± 0.89 |
| YSRISKRVSRKGQSRNCHSG | -0.413 ± 0.52 |
| YALGVAFSQNSYDT | 0.669 ± 0.63 |
| WVHMFMHDYNMRYTFSVYMC | inactive |
| MSYMCLNRYILVGYCWVQTT | 0.312 ± 0.66 |
| WTVSSVIGNGWQCNRSYG | 0.247 ± 0.27 |
| AELILFIVLELMKRAFLSS | -0.795 ± 0.4 |
